Measurements: patent US20160303217A1 (published 2016)

B1: porcine transferrin (ligand)
chain: VAQKTVRWCTISNQEANKCSSFRENMSKAVKNGPLVSCVKKSSYLDCIKAIRDKEADAVTLDAGLVFEAGLAPYNLKPVVAEFYGQKDNPQTHYYAVAVVKKGSNFQWNQLQGKRSCHTGLGRSAGWIIPMGLLYDQLPEPRKPIEKAVASFFSSSCVPCADPVNFPKLCQQCAGKGAEKCACSNHEPYFGYAGAFNCLKEDAGDVAFVKHSTVLENLPDKADRDQYELLCRDNTRRPVDDYENCYLAQVPSHAVVARSVDGQEDSIWELLNQAQEHFGRDKSPDFQLFSSSHGKDLLFKDSANGFLKIPSKMDSSLYLGYQYVTALRNLREEISPDSSKNECKKVRWCAIGHEETQKCDAWSINSGGKIECVSAENTEDCIAKIVKGEADAMSLDGGYIYIAGKCGLVPVLAENYKTEGENCVNTPEKGYLAVAVVKKSSGPDLNWNNLKGKKSCHTAVDRTAGWNIPMGLLYNKINSCKFDQFFGEGCAPGSQRNSSLCALCIGSERAPGRECLANNHERYYGYTGAFRCLVEKGDVAFVKDQVVQQNTDGKNKDDWAKDLKQMDFELLCQNGAREPVDNAENCHLARAPNHAVVARDDKVTCVAEELLKQQAQFGRHVTDCSSSFCMFKSNTKDLLFRDDTQCLARVGKTTYESYLGADYITAVANLRKCSTSKLLEACTFHSAKNPRVETTT

Columns and labels:
[1] = target: A. pleuropneumoniae TbpB 26-528 (amino acid 26-528) derived from strain H87, purified recombinant truncated …; assay: SPR
[2] = target: T1, A. pleuropneumoniae TbpB 20-528 (amino acid 20-528) derived from strain H49, purified recombinant truncated …; assay: SPR
[3] = target: T1, A. pleuropneumoniae TbpB 20-528 (amino …); assay: ITC
[4] = target: B1; assay: BLI

**Q.** Which Kd [1] does the source give for B1 here?
**A.** 60 nM

**Q.** And the Kd [2]?
**A.** 44 nM

**Q.** And the Kd [3]?
**A.** 55 nM

B2: H. parasuis TbpB 27-577 (amino acid 27-577) derived from the Nagasaki strain Hp5, purified recombinant truncated protein (protein)
chain: FDLEDVQPNKTTGVSKEEYQDVETDKKVKEQLGELMEPALGYVVKVPVSQSGARRTEISNPEAITDEDLKKIPNHETIKSVAEQNYGWVVDKTADKTMKYVRSGYAIDVDHYGTRDKGYVFYKGINPSKELPQGLVLTYQGEWDFTSDANLDAKRPNSNPEFNGYGPGQRIATTSANAKGRTYTSEFEVDFSAKKLKGKLNSKTANTESLERYSIEAEPKGNRFRGKAIAKDTSDAILGKSSDYLEGGFYGPKAEELAGKFITNDKSLFAVFSAKHNGSNVDTVRIIDASKIDLTHFNSSELTNFGDASVLIIDGKKMDLAGTDFKNSKTIEINGKTMVAVACCSNLEYMKFGQLWQKEGETAKDNSLFLQGERTTTDKMPKGGNYKYIGTWDAQVSKENNWVATADDDRKAGYRTEFDVDFGNKNLSGKLFDKNGVNPVFTVDAKINGNGFTGKAKTSDAGFALDSDSSRYDNVKFSDVAVNGGFYGPTAAELGGQFFHKSDNGSVGAIFGAKRQVKK
**Q.** With B2 as the binder, how does the Kd [4] read?
**A.** 21 nM
